In patent US8525237 one finds limit of detection and increase in the resistance (ΔR/R0) data, which are given here for one substance.

The target of experiment [1] is M13 bacteriophage incorporated into PEDOT nanowires (M13 bacteriophage). In words: electrical resistance of virus-PEDOT nanowire array in PBF.
Experiment [2] has the same target. The experiment can be described thus: electrical resistance of virus-PEDOT nanowire array in PBF, 99 nM antibody.

The substance “Anti-M13 antibody (p-Ab, GE Healthcare Life Sciences)” showed a limit of detection in experiment [1] of 20 nM. The substance also showed an increase in the resistance (ΔR/R0) at 99 nM antibody in experiment [2] of 40%.
